± gives the uncertainty stated by the source.

The nature of the series: amyloid nucleation score (Sup35N fusion, yeast selection) (log enrichment); library NNK1; higher = more nucleation; inactive = no reads after selection. The essentials: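 Random libraries were run with three technical output replicates. In each, psi-negative yeast expressing Sup35N fused to peptides of 20 random codons were induced 24 hours with 100 μM copper sulfate and grown 7 days at 30°C on medium lacking adenine and uracil, and input and output plasmid inserts were Illumina-sequenced. The nucleation score is the DiMSum log enrichment of output over input reads, centred on the mode score of non-aggregating sequences, and sequences under 100 input reads were excluded.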
Regarding SGRPLEYTDNGEQDRMWWQS, the amyloid nucleation score was -0.044 ± 0.88.

The substance SGSMVRDRW gave an amyloid nucleation score of 1.83 ± 0.27. The result for SGSQY reads -1.26 ± 1.7; that for SGVINTAAMIRTDPWRVLDG, 0.765 ± 0.42; that for SGWSYRRAGRHWMAMMGNKF, -0.04 ± 0.34. The result for SHEGIIMLMLTHQFSW reads 2.07 ± 0.14; that for SHEGTGLGMGAVG, -0.01 ± 0.36. Turning to SHGAGYRFTEFIHHSGGLPN, the amyloid nucleation score is 0.498 ± 0.39. The result for SHGSTLLARYCRINGWPATP reads -0.167 ± 0.71; that for SHIHCFFDDTTNTKKLVWPW, -0.563 ± 0.45; that for SHKRIWDIFNIGFHQCD, 0.048 ± 0.59. The result for SHLCTMIGTCFL reads 1.98 ± 0.13. The value for SHNVKSWCRYSDGQKGLCKY was 1.62 ± 0.43; that for SHPSKRLRTSKNVCACATNP was -0.12 ± 0.4. For SIEDHDYFLIAFY, the amyloid nucleation score was -0.076 ± 1.6. The substance SIGVGCGEVCFLYRSEPIFV gave an amyloid nucleation score of -0.04 ± 0.31. The result for SIIFGVKTFSVFSKIYGLCW reads 3.3 ± 0.067; that for SILISMYGGSSKKCQRFEEG, 0.977 ± 0.47. On to SILLWDLKANF, for which the amyloid nucleation score is 0.346 ± 0.29. For the substance SILTSNMGQSHVSMDVLVVW, the amyloid nucleation score result is “inactive”. The result for SIPNSAQHFTSPPARFHSTG reads 0.042 ± 0.69; that for SIRFMLYVRVKR, -0.234 ± 0.66.

In turn, SISAASCIHFRMDVVCKTDF yielded an amyloid nucleation score of -0.519 ± 0.41.

Take SIVIIG: the amyloid nucleation score was -0.155 ± 0.7. The result for SIVMYDTNMTFRWSAYGRKN reads 2.13 ± 0.096; that for SIYEVEGVTLGLEEHNMKGE, -0.43 ± 0.43; that for SIYSFDHYGANRFLFYGGLS, 0.358 ± 0.62. The result for SKASMEGYW reads 0.739 ± 0.54; that for SKAWNRAGELVVSCTMVS, “inactive”. The result for SKRCWGDGMDTFSAIVEAIW reads -0.128 ± 0.54; that for SKRMNGRNP, 0.153 ± 0.47. Substance SKSCFFKQYLTSIIYLHTKK displayed an amyloid nucleation score of 0.418 ± 0.32. In the case of SKSFGFEYPG, the amyloid nucleation score was -0.002 ± 0.37. With SKSGGHASSNG, the amyloid nucleation score is 0.649 ± 0.85.

SKTEMSTTMFY: the amyloid nucleation score is -0.037 ± 0.38. The value for SLATEYCSPFNINRFHLVSI was 1.78 ± 0.29; that for SLAYCSFHMLKIPLRSGPTW was 0.01 ± 1.2; that for SLDCLLYTLVDCRAFSFYKN was -0.359 ± 0.39. SLDLMCGHQPRSCMVLDSRV: the amyloid nucleation score was determined as 0.983 ± 0.97. In turn, SLFLGVVHFAVRVSLGSVWG yielded an amyloid nucleation score of -0.771 ± 0.82. Regarding SLFRVDYIDRFLSQFVEYNG, the amyloid nucleation score was 0.333 ± 0.55. The result for SLHILISH reads 0.537 ± 0.39. The result for SLKFEYCFSPSNVAAVDWGT reads -0.34 ± 0.98; that for SLKFRLYSPNAMALNPKALF, 0.581 ± 0.21. The value for SLKSSCRKNRLM was 0.048 ± 0.5; that for SLLFY was “inactive”. SLLTRDVYNRRAR showed an amyloid nucleation score of -0.562 ± 0.36. The result for SLPFTFSLVMMCFFVCVRGL reads -1.76 ± 1.2; that for SLRSHML, 0.938 ± 0.98; that for SLSKLAICMWSYIFNMSYFC, -0.139 ± 0.81. The value for SLSRNYHPFRAKIFLCLGRN was 0.097 ± 0.82; that for SLTTHSAGHPLYIHVFNVLV was 0.147 ± 0.35. The result for SLVCNMFLSILRYFGFLNRS reads “inactive”; that for SLVLSSFPLLIDNSSIESLV, -0.82 ± 0.42; that for SLVSYSVHANFCVFIWTNGS, 1.25 ± 0.44. SLWNSYLETRV returned an amyloid nucleation score of 1.14 ± 0.69.

Turning to SLWRDKDISWGGKSYVHVPS, the amyloid nucleation score is 1.14 ± 0.75. In the case of SLYELPWDNYP, the amyloid nucleation score was -0.043 ± 1.4. Substance SMCNEVDGTDGYAAIGLYMY displayed an amyloid nucleation score of -1.65 ± 2.4. In turn, SMDTLLHP registered an amyloid nucleation score of -0.155 ± 0.23. On to SMFYLSKFAVEFWRRMS, for which the amyloid nucleation score is -0.097 ± 0.44.

SMIGRSCYEV: the amyloid nucleation score entry was “inactive”. The value for SMLMFIQIV was 1.96 ± 0.1. The value for SMLYFRNFRASLLPWAVDFT was -0.496 ± 1.7; that for SMRWVDL was 1.19 ± 0.97.

As for SMSHGWGLLDFLWADCWWPK, the amyloid nucleation score is -0.031 ± 1. The result for SMTVNDTLLRLRVGSAILYF reads -0.852 ± 0.4; that for SMVNNWIMDCLWAILWVIDI, “inactive”; that for SMVTQLRSDNLGHWANSESR, 0.108 ± 0.34.

Consider SMYVPCRFSTDSTMLPNELK, for which the amyloid nucleation score was -0.19 ± 0.66. The value for SNFCDSDLYLFRNWPYYWHS was -0.434 ± 0.26; that for SNFSYMSCLLGYLPLILFAA was 0.014 ± 0.21; that for SNIKLGFLRSLHIMKTSSDL was -0.113 ± 0.41. SNKIGVCSKLMISFPCIEYN returned an amyloid nucleation score of -0.065 ± 1.1. The result for SNNGCRIQRGVRNLAKGSTL reads -1.09 ± 0.9. As for SNPIRTNV, the amyloid nucleation score is -0.533 ± 0.38.

The substance SNPRTFNDPSKPRV came in with an amyloid nucleation score of 0.518 ± 0.35. The substance SNQAHSMLISTIIMILGCYC came in with an amyloid nucleation score of 0.419 ± 0.34.

Take SNRALMADLKERNVINTPIN: the amyloid nucleation score is -0.385 ± 1.9. Consider SNREFLQSVVLW, for which the amyloid nucleation score was 0.209 ± 0.48.

Take SNRGRNLGSYCVGNYFGCFT: the amyloid nucleation score is -0.224 ± 1.7. Turning to SNSLFNVSQSRSSKSLYQNA, the amyloid nucleation score is 0.264 ± 0.97. For SNTSRLVRRVVQSPYTTCGG, the amyloid nucleation score was found to be 0.312 ± 0.46. Regarding SNTTIFFSFNRVPTISLNHS, the amyloid nucleation score turned out to be 3.82 ± 0.1. The result for SNYDIWRPILSRWSDREGWV reads 1.34 ± 0.36; that for SPCLLF, -0.637 ± 2.1; that for SPEFEEAWDGIKFYCKGANP, -1.09 ± 1.2. The result for SPEGSPNEHDYTIPAVRGGP reads 0.775 ± 0.38; that for SPFPGKEFNGIVCPLPYSMI, -0.366 ± 0.56. The substance SPHTI showed an amyloid nucleation score of 4.92 ± 0.097. Turning to SPLNKMVTFVAVLAFVFVLV, the amyloid nucleation score was determined as 0.114 ± 0.66.

In turn, SPSFYFH returned an amyloid nucleation score of -0.019 ± 0.98. The value for SPTTRTCNLVKIQGTNLSHR was 1.36 ± 0.66; that for SPWSSNRYVLNSFYLSHPRR was -0.308 ± 0.32. The value for SQHDRKYHYTIGYAQELDGL was -0.235 ± 0.43; that for SQLESFWVYMQLRGMTYTVA was -0.081 ± 0.31. The substance SQLGMAWLSHGVDLPIRFYK registered an amyloid nucleation score of 0.241 ± 1.4. The result for SQLWCLTNKHRKQQRKAGHY reads 0.027 ± 0.53. The substance SQPMSS registered an amyloid nucleation score of 0.591 ± 0.31.

Substance SQVMSRLLGKFKLY returned an amyloid nucleation score of -0.609 ± 0.32.

For the substance SRDEFCG, the amyloid nucleation score was -0.326 ± 0.47.

As to SRGRSNAALSLRKFVGGFCL, the amyloid nucleation score result was “inactive”. The result for SRIGTCGLNSCCLINNIVRD reads 6.919 ± 0.045.

Turning to SRLVFGHTNRRNSIEQTELL, the amyloid nucleation score entry is “inactive”. As to SRRWGLN, the amyloid nucleation score entry was “inactive”. The substance SRTVTLFHHASNKSFHSSVS yielded an amyloid nucleation score of -0.074 ± 0.9. In the case of SRVSTFGWIIRSEYYFFWAW, the amyloid nucleation score came out at 0.666 ± 0.32. In turn, SRVVFTSM gave an amyloid nucleation score of -1.18 ± 1.6. As for SRYLDIEVLSHGMNWMTFQT, the amyloid nucleation score was -0.005 ± 0.77. The value for SSCLEGCKSEACGWSNDGPG was -0.048 ± 0.76; that for SSDMGFFARYLSLNH was 0.512 ± 0.55; that for SSFQGPSYSSCIRQHRNTRI was -0.614 ± 0.67. The value for SSFSLGHVDGYKSTSVDAVL was 0.048 ± 1.4; that for SSGFVYIYSSKSLGANSKNL was -0.176 ± 1; that for SSGPVFYKLPRLHCVGSHRH was 0.603 ± 0.5.

SSGQLSNKYC registered an amyloid nucleation score of 0.786 ± 0.46. The result for SSGVSNQSIQDIDMRLVYFA reads 0.06 ± 0.35; that for SSILDHLAAFVRRWFVYALL, -0.591 ± 0.98. The substance SSILISFI yielded an amyloid nucleation score of -0.471 ± 0.94. The result for SSIVIRTCKWYGTVCIWELL reads -0.339 ± 0.39; that for SSKMNILP, 0.51 ± 0.26; that for SSLMPIYRLFLWFVKVYVKP, 9.39 ± 0.049.

On to SSLQFEMVFGTCYCRKSYSR, for which the amyloid nucleation score is 4.19 ± 0.082.

Regarding SSNFLRILIGTFVRYRV, the amyloid nucleation score was 0.073 ± 0.37. The result for SSQVIVCDVYSQVTRFSFCE reads 0.557 ± 0.29; that for SSSGMVDSVSYDLRGRVGLR, 0.29 ± 0.3.

Take SSSIVLCAVRCSRPSWFGML: the amyloid nucleation score was 1.45 ± 0.32. Turning to SSSSYIYCYFFPQSMVMVFS, the amyloid nucleation score was determined as 3.66 ± 0.1. SSSVCASFAVWSCCASF gave an amyloid nucleation score of 4.52 ± 0.084. The value for SSVCFVNRGSWPYSKVFNGC was -0.019 ± 0.37; that for SSWFFYQNIAVSYSNKAINF was 0.379 ± 0.17; that for SSWSFHARWRVRAISCACN was -0.062 ± 0.51. Consider SSYVMVCMKTYWCQEL, for which the amyloid nucleation score is 2.45 ± 0.18. The value for STCGCRPGLLFWARSPYN was -0.367 ± 0.63; that for STCLGGERSYRYVMWLVLVV was 0.148 ± 0.42.

For STDVEGRFTEMLSELMLYVD, the amyloid nucleation score result was “inactive”. On to STEIATKGGGQLGIISTNDA, for which the amyloid nucleation score amounted to 0.254 ± 0.56. The value for STFIVGMRYVPLSKGR was -0.513 ± 1; that for STGLACSSWQAFIYLCLLYY was -0.516 ± 1.1.

Values taken from the supplement of paper PMC12042874.
